Molecular target: patched (on patched-transfected EBNA-293 cells)
Test: FACS competition with Shh-Ig on patched-transfected EBNA-293 cells

IC50 [µg/mL] | Substance
0.4 | tethered human Sonic hedgehog (N-terminal palmitoyl, C-terminal cholesterol) purified from High Five insect cells (from UniProt Q14623 28-201) (ligand)
0.15 | soluble human Sonic hedgehog N-terminal fragment (unmodified, produced in E. coli) (from UniProt Q14623 28-201) (ligand)

Reference: patent publication EP1577321A1
